One data set concerns the target T1, p97 antigen (Homo sapiens, UniProt P08582).
T1 sequence (P08582 20-738): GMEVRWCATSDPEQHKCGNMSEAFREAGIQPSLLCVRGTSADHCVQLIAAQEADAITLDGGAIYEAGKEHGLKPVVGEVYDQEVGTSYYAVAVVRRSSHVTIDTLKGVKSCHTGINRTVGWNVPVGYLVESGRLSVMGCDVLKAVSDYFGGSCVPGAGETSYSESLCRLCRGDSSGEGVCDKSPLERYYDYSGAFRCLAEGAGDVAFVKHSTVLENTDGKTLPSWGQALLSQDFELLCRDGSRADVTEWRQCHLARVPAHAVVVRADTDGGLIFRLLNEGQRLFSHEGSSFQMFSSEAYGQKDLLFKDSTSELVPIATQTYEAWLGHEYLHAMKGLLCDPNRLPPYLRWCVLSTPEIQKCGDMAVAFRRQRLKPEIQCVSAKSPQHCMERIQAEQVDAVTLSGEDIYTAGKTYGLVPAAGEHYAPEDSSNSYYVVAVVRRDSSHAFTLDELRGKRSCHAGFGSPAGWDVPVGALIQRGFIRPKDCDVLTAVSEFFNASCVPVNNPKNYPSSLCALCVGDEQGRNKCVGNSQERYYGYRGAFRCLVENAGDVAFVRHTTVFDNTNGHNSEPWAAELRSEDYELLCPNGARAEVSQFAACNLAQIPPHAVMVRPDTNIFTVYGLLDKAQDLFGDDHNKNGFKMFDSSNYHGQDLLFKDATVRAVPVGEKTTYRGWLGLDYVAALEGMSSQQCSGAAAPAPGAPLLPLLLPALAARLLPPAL
Put plainly: Surface plasmon resonance binding to immobilized p97 antigen. The following applies: p97 immobilized on gold surface. The procedure: The binding characteristics of the sFv portion of the fusion protein were determined using a fluorescent activated cell sorting competition assay in which fusion protein and FITC-modified whole L49 competed for binding to cell-surface antigens on SK-MEL 28 melanoma cells. […] More detailed information about binding was obtained using surface plasmon resonance, which allowed the measurement of the on and off rates of L49-sFv-bL binding to the p97 antigen immobilized on a gold surface (Table 1).
On the technique in general: SPR reads the build-up and loss of mass on a sensor chip optically.

The nature of data set [1]: Michaelis-Menten kinetic analysis of bL activity with nitrocefin as substrate. It is filed as biochemical. The text has this: Enzymatic activity assays of the bL portion of L49-sFv-bL were undertaken using nitrocefin as the enzyme substrate (Table 1). […] Thus, both the binding of the L49 antibody and enzymatic activity of the E. cloacae r2-1 bL were preserved in the fusion protein.

The subject of the next data set is 3677 melanoma xenografts. Kind of data set: In vivo therapy of established s.c. 3677 melanoma xenografts. Also noted: species or system nude mice. The procedure: FIGS. 10A-10D. Therapeutic effects of L49-sFv-bL/CCM combinations in nude mice (six mice/group) with subcutaneous 3677 melanoma xenografts. Conjugates were injected, followed at various times by CCM (arrows on the X-axis). […] FIG. 10A. L49-sFv-bL (1 mg/kg/injection) 12 h before CCM. FIG. 10B. L49-sFv-bL (1 mg/kg/injection) 24 h before CCM. FIG. 10C. L49-sFv-bL (4 mg/kg/injection) 24 h before CCM. FIG. 10D. L49-sFv-bL (4 mg/kg/injection) 48 h before CCM.
In Vivo Therapy Experiments. 3677 tumor-bearing mice (subcutaneous implants, six animals/group, average tumor volume 130 mm^3) were injected with L49-sFv-bL (i.v., 7-8 days post tumor implant), followed 12-48 h later by CCM using doses of fusion protein and prodrug as indicated in the Results section. Treatment with L49-sFv-bL+CCM was repeated 1 week later. Animals were monitored 1-2 times/week for body weight, general health, and tumor growth. Tumor volume was estimated using the formula: longest length×perpendicular dimension^2 /2. Cures were defined as an established tumor that, after treatment, was not palpable for ≥10 tumor volume doubling delays (≥40 days in the 3677 tumor model). Maximum tolerated doses led to less than 20% weight loss, no treatment-related deaths, and were within 50% of the dose where such events took place.
Therapeutic Activity. In vivo therapy experiments were performed using the L49-sFv-bL/CCM combination in nude mice with established s.c. 3677 tumors. […] In the experiments reported here, conjugate treatment was initiated 7-8 days after tumor implant, at which time the tumors were approximately 130 mm^3 in volume. CCM was then administered 12, 24, or 48 h later, and the treatment protocol was repeated after 1 week. Maximum tolerated doses are defined as those that led to less than 20% weight loss, no treatment-related deaths, and were within 50% of the dose where such events took place. A tumor was considered as having been cured once it was not palpable for at least 10 tumor volume doubling times, based on the tumor growth of untreated animals (tumor volume doubling time was 4 days). If an animal was removed from the experiment because of tumor growth, the data from the entire group was no longer plotted, but the remaining animals were followed for tumor size and general health.

The mark [2] stands for this setting: L49-sFv-bL 1 mg/kg/injection, CCM 75 mg/kg/injection 12 h later.

B1: L49-sFv-bL: recombinant fusion protein: L49 anti-p97 single-chain Fv (VH-218 linker-VL) fused to r2-1 mutant E. cloacae β-lactamase, SEQ ID NO: 20 (protein)
chain: MKYLLPTAAAGLLLLAAQPAMAEVQLQESGPSLVKPSQTLSLTCSVTGDSITSGYWNWIRKFPGNKLEYMGYISDSGITYYNPSLKSRISITRDTSKNQYYLQLNFVTAEDTATYNCARRTLATYYAMDYWGQGTSVTVSSGSTSGSGKPGSGEGSTKGDFVMTQTPLSLPVSLGDQASISCRASQSLVHSNGNTYLHWYLQKPGQSPKLLIYRVSNRFSGVPDRFSGSGSGTDFTLKISRVEAEDLGVYFCSQSTHVPPTFGGGTKLEIKRTPVSEKQLAEVVANTITPLMKAQSVPGMAVAVIYQGKPHYYTFGKADIAANKPVTPQTLFELGSISKTFTGVLGGDAIARGEISLDDAVTRYWPQLTGKQWQGIRMLDLATYTAGGLPLQVPDEVTDNASLLRFYQNWQPQWKPGTTRLYANASIGLFGALAVKPSGMPYEQAMTTRVLKPLKLDHTWINVPKAEEAHYAWGYRDGKAVRVSPGMLDAQAYGVKTNVQDMANWVMANMAPENVADASLKQGIALAQSRYWRIGSMYQGLGWEMLNWPVEANTVVETSFGNVALAPLPVAEVNPPAPPVKASWVHKTGSTGGFGSYVAFIPEKQIGIVMLANTSYPNPARVEAAYHILEALQTSEFE
In the data set with p97 antigen, B1 came in with a Kd of 1 nM and a koff of 0.00042 s⁻¹. Further, in data set [1], the Km stood at 19 µM, the “enzymatic activity relative to the mutant bL enzyme” value is listed as “retained the full enzymatic activity” and the kcat was 232 s⁻¹. For the same molecule, in the data set with 3677 melanoma xenografts (CCM 24 h post conjugate, both cases (FIG. 10B, 10C)), the toxicity result is given as “no evidence of toxicity”. Also, in the data set with 3677 melanoma xenografts (setting [2]), the “cures in the group of six mice” value is reported as “four” and the “tumor response of the remaining two animals” value is listed as “partial regressions”. The tumor cures entry in the data set on 3677 melanoma xenografts (L49-sFv-bL 1 mg/kg/injection, CCM 125 and 175 mg/kg/injection 12 h later, repeated after 1 week) is reported as “all of the animals”. Also, in the data set with 3677 melanoma xenografts (L49-sFv-bL 1 mg/kg/injection, increased CCM dose 24 h later (FIG. 10B)), the tumors cured result is recorded as “the majority of tumors were cured”. In addition, the “animals cured, of six” value in the data set on 3677 melanoma xenografts (L49-sFv-bL 4 mg/kg/injection, CCM 275 mg/kg/injection 48 h later) is “three”. The tumors cured entry with 3677 melanoma xenografts (L49-sFv-bL 4 mg/kg/injection, CCM 24 h later (FIG. 10C)) is listed as “the majority of tumors were cured”. Further, in the data set on 3677 melanoma xenografts (L49-sFv-bL 4 mg/kg/injection, CCM 48 h later (FIG. 10D)), the tumor regressions entry was “all of the mice”. Besides, the toxicity result with 3677 melanoma xenografts (L49-sFv-bL then CCM 75, 125 or 175 mg/kg/injection 12 h later) is “no apparent toxicities”.

For orientation: Kd means the constant that tells how readily two partners part at equilibrium. As a reminder, the koff is the first-order rate constant of dissociation. Broadly, the Km is the substrate concentration at which the rate is half of its maximum. Broadly, the kcat is the number of substrate molecules converted per active site and unit of time at saturation.

The record behind these values is patent US6132722A, “Recombinant antibody-enzyme fusion proteins” (Bristol-Myers Squibb Company, priority 1998, dated 2000).
